Molecular target: Cotton leaf curl Kokhran virus-Dabawali V2, His-tagged (Cotton leaf curl Kokhran virus-Dabawali)
Assay: SPR; BIAcore 2000, 25 C; His-tagged V2 immobilised on Ni-NTA chip (about 340-350 RU); GST-CP 100-800 nM flowed at 20 ul/min, 90 s association; 10 mM HEPES pH 7.4, 150 mM NaCl, 50 uM EDTA, 0.005% surfactant P-20; global fit, 1:1 Langmuir model

With “GST-CP fusion protein (coat protein of Cotton leaf curl Kokhran virus-Dabawali) (natural protein)” the Kd was 2600 nM, the koff was 0.00267 s⁻¹ and the kon was 1030 M⁻¹ s⁻¹.

Source: article PMC3217939
